Consider 1 substance from US6475781.

Assay [1] concerns the target wildtype murine PDGF A chain (murine) (UniProt P20033). The assay is described as follows: cell-based or functional assay.
Assay [2] has as its target human PDGF-B (c-sis) (human) (UniProt P01127). The assay is described as follows: cell-based or functional assay.

human PDGF-B (c-sis) (human), sequence (P01127 82-190 limits assumed): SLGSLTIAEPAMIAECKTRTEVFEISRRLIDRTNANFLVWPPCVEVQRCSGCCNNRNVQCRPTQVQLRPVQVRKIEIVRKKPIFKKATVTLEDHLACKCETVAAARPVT

Substance “PDGF A dominant negative mutant 1308 (murine PDGF A chain with the third cysteine residue changed to serine) (from UniProt P20033 87-196) (ligand)” came in with a growth of PDGF-A transformed Balb/c 3T3 sublines in PPP-supplemented medium (% suppression) in assay [1] of 70. Moreover, the growth of PDGF-B (c-sis) transformed Balb/c 3T3 sublines in PPP-supplemented medium in assay [2] stood at 90 % inhibition.
